PMC6317155, “Identification of Small Peptides that Inhibit NADPH Oxidase (Nox2) Activation” (Antioxidants, 2018)

T1: aiPLA2 activity of recombinant human Prdx6 (Homo sapiens, UniProt P30041)
T1 sequence (P30041 1-224): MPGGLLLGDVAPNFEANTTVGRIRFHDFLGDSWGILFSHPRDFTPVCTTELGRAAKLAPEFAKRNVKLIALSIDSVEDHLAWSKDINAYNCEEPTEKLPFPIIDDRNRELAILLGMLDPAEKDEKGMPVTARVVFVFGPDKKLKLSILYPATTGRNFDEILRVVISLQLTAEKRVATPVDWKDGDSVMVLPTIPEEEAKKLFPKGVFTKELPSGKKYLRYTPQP

T2: recombinant human peroxiredoxin 6 (Prdx6) (human) (UniProt P30041)
T2 sequence: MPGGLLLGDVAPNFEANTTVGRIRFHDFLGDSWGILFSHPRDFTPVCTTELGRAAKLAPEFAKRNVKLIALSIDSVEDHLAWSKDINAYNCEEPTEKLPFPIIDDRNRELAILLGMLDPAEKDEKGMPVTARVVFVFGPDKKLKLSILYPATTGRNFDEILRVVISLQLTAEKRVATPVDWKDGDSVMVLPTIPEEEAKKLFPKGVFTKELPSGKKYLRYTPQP

T3: mouse peroxiredoxin 6 (Prdx6), endogenous in lung homogenate (mouse (endogenous in lung)) (UniProt O08709)
T3 sequence: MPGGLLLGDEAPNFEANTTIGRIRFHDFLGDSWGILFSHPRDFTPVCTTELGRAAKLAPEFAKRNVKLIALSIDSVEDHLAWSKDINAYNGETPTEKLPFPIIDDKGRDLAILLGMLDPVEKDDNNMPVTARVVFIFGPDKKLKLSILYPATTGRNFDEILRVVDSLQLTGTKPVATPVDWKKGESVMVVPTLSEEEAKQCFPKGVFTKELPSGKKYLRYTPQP


Key:
[1] = biological target: T1, aiPLA2 activity of recombinant human Prdx6; assay: aiPLA2 (PLA2) activity of recombinant human Prdx6 in vitro, 3H-DPPC liposome substrate; assay type: biochemical; details: for Concentration of peptide for inhibition of aiPLA2 activity by 50%: concentration corrected for purity of the PIP preparation, Figure 2, n = 3; for Activity (aiPLA2 of recombinant hPrdx6), deletion from N-term: peptides deleted from N-terminus of 16-aa rat-derived SP-A peptide, no-peptide control 94.8, 3H-DPPC liposomes, 60 min; for Activity (aiPLA2 of recombinant hPrdx6), deletion from N-term / Activity (aiPLA2 of recombinant hPrdx6), human-derived peptides: one assay done in duplicate; for Activity (aiPLA2 of recombinant hPrdx6), human-derived peptides: deletions from 16-aa human-derived SP-A peptide, no-peptide control 92.0
Method: The PLA2 activity of Prdx6 was measured as described previously. The substrate was dipalmitoylphosphatidylcholine (DPPC) with ^3H-9,10-palmitate in the sn-2 position of DPPC incorporated into lung surfactant-like liposomes as described above; substrate was incubated with enzyme for 60 min and activity was calculated from the liberation of ^3H-palmitate as measured by scintillation counting.
The effect of the PIP peptides on the aiPLA2 activity of human recombinant Prdx6 was determined by in vitro assay; the effective concentration of inhibitor was corrected for purity of the PIP preparation. Saturating concentrations of all three peptides (PIP-1, PIP-2, PIP-3) inhibited aiPLA2 activity by ~70% (Figure 2). The basis for the remaining 30% of activity that was not inhibited is unclear.

[2] = biological target: T2, recombinant human peroxiredoxin 6 (Prdx6) (human)
[3] = biological target: T2, recombinant human peroxiredoxin 6 (Prdx6) (human); remark: listed apart in the source
[4] = biological target: T2, recombinant human peroxiredoxin 6 (Prdx6) (human); remark: listed apart in the source
[5] = biological target: T2, recombinant human peroxiredoxin 6 (Prdx6) (human); remark: listed apart in the source
[6] = biological target: T3, mouse peroxiredoxin 6 (Prdx6), endogenous in lung homogenate (mouse (endogenous in lung))

| Molecule | Activity (aiPLA2 of recombinant hPrdx6), deletion from N-term [1] [nmol/min/mg Prot.] | concentration of peptide for inhibition of aiPLA2 activity by 50% [3] [µg/mg Prdx6] | inhibition of the aiPLA2 activity of human recombinant Prdx6 in vitro against peptide concentration, up to saturating concentrations [3] [%] | molar stoichiometry of peptide to Prdx6 monomer worked out from the PIP to Prdx6 ratio at maximal inhibition of aiPLA2 activity (peptide to Prdx6 monomer, molar) [3] | also measured |
| --- | --- | --- | --- | --- | --- |
| LYDIRHQIL [PIP-3] |  |  |  |  | Inhibition of aiPLA2 activity of human recombinant Prdx6 [1]: ~ 70%; Concentration of peptide for inhibition of aiPLA2 activity by 50% ([1]; recombinant human Prdx6): ~ 10 µg/mg Prdx6 |
| LYEIKHQIL [PIP-1] | 32.3 |  |  |  | Inhibition of aiPLA2 activity at saturating concentrations of peptide ([1]; recombinant human Prdx6, Figure 2, mean + SEM, n = 3): ~ 70%; Concentration of peptide for inhibition of aiPLA2 activity by 50% ([1]; recombinant human Prdx6): ~ 8.3 µg/mg Prdx6 |
| QTELYEIKHQIL [12-aa N-terminal deletion of rat 16-aa peptide] | 31.5 |  |  |  |  |
| TLHDFRHQI [9-aa human peptide with C-terminal aa deleted] |  |  |  |  | Activity (aiPLA2 of recombinant hPrdx6), human-derived peptides [1]: 89.6 nmol/min/mg Prot. |
| TLHDFRHQIL [10-aa N-terminal deletion of human 16-aa peptide] |  |  |  |  | Activity (aiPLA2 of recombinant hPrdx6), human-derived peptides [1]: 31.5 nmol/min/mg Prot. |
| YEIKHQIL [8-aa N-terminal deletion of rat 16-aa peptide] | 94.4 |  |  |  |  |

Now from value to molecule, other results behind:

| Activity (aiPLA2 of recombinant hPrdx6), deletion from N-term [1] [nmol/min/mg Prot.] | concentration of peptide for inhibition of aiPLA2 activity by 50% [3] [µg/mg Prdx6] | inhibition of the aiPLA2 activity of human recombinant Prdx6 in vitro against peptide concentration, up to saturating concentrations [3] [%] | molar stoichiometry of peptide to Prdx6 monomer worked out from the PIP to Prdx6 ratio at maximal inhibition of aiPLA2 activity (peptide to Prdx6 monomer, molar) [3] | Molecule | also measured |
| --- | --- | --- | --- | --- | --- |
|  | 8.3 | 70 | 1.5 | LYEIKHQIL [PLA2-inhibitory peptide 1 (PIP-1), rat/mouse SP-A nine-aa peptide] | aiPLA2 activity of recombinant hPrdx6 with the peptide (no peptide: 94.8; scrambled peptide: 93.5) (nmol/min/mg Prot.) [2]: 32.3 |
|  | 10 | 70 | 1.5 | LYDIRHQIL [PLA2-inhibitory peptide 3 (PIP-3), hybrid of PIP-1 and PIP-2] | inhibition of aiPLA2 activity by the hybrid nine-aa peptide [4]: 70% |
|  | 6.6 | 70 | 1.5 | LHDFRHQIL [PLA2-inhibitory peptide 2 (PIP-2), human SP-A nine-aa peptide] | aiPLA2 activity of recombinant hPrdx6 with the peptide (no peptide: 92.0) (nmol/min/mg Prot.) [5]: 29.9; inhibition of PLA2 activity at pH 4 without Ca2+ (aiPLA2) of wild type mouse lung homogenate after addition of PIP-2 to the assay [6]: 91% |
